This is an account of results in paper PMC6255772.

Test [1] addresses recombinant human IGF-2 (human). As to the kind of experiment: SPR; competition with immobilized MEDI-573. The note with it: Fc fusion.
In a further test the target is IGF-TRAP-3.3 (human) (UniProt P08069). As to the kind of experiment: SPR; BioRad ProteOn, GLC chip; about 1200 RU IGF-TRAP captured on immobilised goat anti-human Fc antibody; ligands 320-3.95 nM injected in triplicates, 120 s association, 600 s dissociation; PBST, 25 °C; 1:1 binding model.
Another test concerns the target IGF-TRAP-3.1 (human) (UniProt P08069). The test is described as above.

On to “IGF-TRAP-3.3 (from UniProt P08069 31-736; P08069 741-935; P01857 1-328)”, for which the IC50 in test [1] turned out to be 6.44 nM.

For human insulin (ligand), the fold lower affinity than for the IGF ligands in the test with IGF-TRAP-3.3 (human) and in the test with IGF-TRAP-3.1 (human) was 1000 fold in each case.
